Laboratory results taken from the RNAGym collection of RNA variant scans (doi:10.1093/molbev/msab373).

B1: Azoarcus group I ribozyme (parent)
chain: GUGCCUUGCGCCGGGAAACCACGCAAGGGAUGGUGUCAAAUUCGGCGAAACCUAAGCGCCCGCCCGGGCGUAUGGCAACGCCGAGCCAAGCUUCGGCGCCUGCGCCGAUGAAGGUGUAGAGACUAGACGGCACCCACCUAAGGCAAACGCUAUGGUGAAGGCAUAGUCCAGGGAGUGGCGAAAGUCACACAAACCGG

Variants of: B1
Experiment: reverse-splicing fitness (ratio to wild type); higher = more active; in vitro selection; Mg2+ level not given
In short: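 An in vitro group I ribozyme library with randomized positions was T7-transcribed and gel-purified. In triplicate, 10 pmol RNA in EPPS pH 7.5 was reacted with 50 pmoles of a 30-nt RNA substrate for 1 h at 37 °C across several added MgCl2 levels (1–48 mM), then stopped with EDTA. Products were reverse transcribed from a substrate-complementary primer, PCR-amplified and sequenced (HiSeq 4000). Fitness is a variant's read proportion after selection over that before, normalised to wild type.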

Q: Which reverse-splicing fitness does the source give for C82A A111C A120U A145G C150A C169A U176G here?
A: 0.00349

Q: Which reverse-splicing fitness does the source give for C82A A111C A120U A145G C150A C169G here?
A: 0.00577

Q: With C82A A111C A120U A145G C150A C169G U176A as the variant, how does the reverse-splicing fitness read?
A: 0.00687

Q: Which reverse-splicing fitness does the source give for C82A A111C A120U A145G C150A C169G U176C here?
A: 0.00514

Q: Which reverse-splicing fitness does the source give for C82A A111C A120U A145G C150A C169G U176G here?
A: 0.00261

Q: Which reverse-splicing fitness does the source give for C82A A111C A120U A145G C150A C169U here?
A: 0.00559

Q: For C82A A111C A120U A145G C150A C169U U176A, which reverse-splicing fitness is on record?
A: 0.00642

Q: With C82A A111C A120U A145G C150A C169U U176C as the variant, how does the reverse-splicing fitness read?
A: 0.00488

Q: For C82A A111C A120U A145G C150A C169U U176G, which reverse-splicing fitness is on record?
A: 0.00328

Q: With C82A A111C A120U A145G C150A U176A as the variant, how does the reverse-splicing fitness read?
A: 0.00754

Q: Which reverse-splicing fitness does the source give for C82A A111C A120U A145G C150A U176C here?
A: 0.00799

Q: With C82A A111C A120U A145G C150A U176G as the variant, how does the reverse-splicing fitness read?
A: 0.00381

Q: For C82A A111C A120U A145G C150G, which reverse-splicing fitness is on record?
A: 0.00762

Q: With C82A A111C A120U A145G C150G C169A as the variant, how does the reverse-splicing fitness read?
A: 0.00782

Q: Which reverse-splicing fitness does the source give for C82A A111C A120U A145G C150G C169A U176A here?
A: 0.0122

Q: For C82A A111C A120U A145G C150G C169A U176C, which reverse-splicing fitness is on record?
A: 0.0094

Q: Which reverse-splicing fitness does the source give for C82A A111C A120U A145G C150G C169A U176G here?
A: 0.00541

Q: For C82A A111C A120U A145G C150G C169G, which reverse-splicing fitness is on record?
A: 0.00663

Q: With C82A A111C A120U A145G C150G C169G U176A as the variant, how does the reverse-splicing fitness read?
A: 0.0101

Q: For C82A A111C A120U A145G C150G C169G U176C, which reverse-splicing fitness is on record?
A: 0.00768

Q: With C82A A111C A120U A145G C150G C169G U176G as the variant, how does the reverse-splicing fitness read?
A: 0.00456

Q: Which reverse-splicing fitness does the source give for C82A A111C A120U A145G C150G C169U here?
A: 0.00759

Q: For C82A A111C A120U A145G C150G C169U U176A, which reverse-splicing fitness is on record?
A: 0.00855

Q: With C82A A111C A120U A145G C150G C169U U176C as the variant, how does the reverse-splicing fitness read?
A: 0.00842

Q: With C82A A111C A120U A145G C150G C169U U176G as the variant, how does the reverse-splicing fitness read?
A: 0.00484

Q: With C82A A111C A120U A145G C150G U176A as the variant, how does the reverse-splicing fitness read?
A: 0.00763

Q: For C82A A111C A120U A145G C150G U176C, which reverse-splicing fitness is on record?
A: 0.00851

Q: For C82A A111C A120U A145G C150G U176G, which reverse-splicing fitness is on record?
A: 0.00449

Q: For C82A A111C A120U A145G C150U, which reverse-splicing fitness is on record?
A: 0.0191

Q: With C82A A111C A120U A145G C150U C169A as the variant, how does the reverse-splicing fitness read?
A: 0.00691

Q: For C82A A111C A120U A145G C150U C169A U176A, which reverse-splicing fitness is on record?
A: 0.00915

Q: For C82A A111C A120U A145G C150U C169A U176C, which reverse-splicing fitness is on record?
A: 0.00432

Q: For C82A A111C A120U A145G C150U C169A U176G, which reverse-splicing fitness is on record?
A: 0.00324

Q: For C82A A111C A120U A145G C150U C169G, which reverse-splicing fitness is on record?
A: 0.0065

Q: For C82A A111C A120U A145G C150U C169G U176A, which reverse-splicing fitness is on record?
A: 0.00597

Q: With C82A A111C A120U A145G C150U C169G U176C as the variant, how does the reverse-splicing fitness read?
A: 0.00509

Q: For C82A A111C A120U A145G C150U C169G U176G, which reverse-splicing fitness is on record?
A: 0.00299

Q: With C82A A111C A120U A145G C150U C169U as the variant, how does the reverse-splicing fitness read?
A: 0.00603

Q: With C82A A111C A120U A145G C150U C169U U176A as the variant, how does the reverse-splicing fitness read?
A: 0.00523

Q: Which reverse-splicing fitness does the source give for C82A A111C A120U A145G C150U C169U U176C here?
A: 0.00469

Q: With C82A A111C A120U A145G C150U C169U U176G as the variant, how does the reverse-splicing fitness read?
A: 0.00315

Q: With C82A A111C A120U A145G C150U U176A as the variant, how does the reverse-splicing fitness read?
A: 0.00986

Q: Which reverse-splicing fitness does the source give for C82A A111C A120U A145G C150U U176C here?
A: 0.0108

Q: With C82A A111C A120U A145G C150U U176G as the variant, how does the reverse-splicing fitness read?
A: 0.00369

Q: For C82A A111C A120U A145G C169A, which reverse-splicing fitness is on record?
A: 0.00372

Q: Which reverse-splicing fitness does the source give for C82A A111C A120U A145G C169A U176A here?
A: 0.00438

Q: Which reverse-splicing fitness does the source give for C82A A111C A120U A145G C169A U176C here?
A: 0.00466

Q: Which reverse-splicing fitness does the source give for C82A A111C A120U A145G C169A U176G here?
A: 0.00219

Q: With C82A A111C A120U A145G C169G as the variant, how does the reverse-splicing fitness read?
A: 0.00415

Q: With C82A A111C A120U A145G C169G U176A as the variant, how does the reverse-splicing fitness read?
A: 0.00381

Q: For C82A A111C A120U A145G C169G U176C, which reverse-splicing fitness is on record?
A: 0.00437

Q: Which reverse-splicing fitness does the source give for C82A A111C A120U A145G C169G U176G here?
A: 0.00244

Q: Which reverse-splicing fitness does the source give for C82A A111C A120U A145G C169U here?
A: 0.00493

Q: Which reverse-splicing fitness does the source give for C82A A111C A120U A145G C169U U176A here?
A: 0.00527

Q: With C82A A111C A120U A145G C169U U176C as the variant, how does the reverse-splicing fitness read?
A: 0.00417

Q: For C82A A111C A120U A145G C169U U176G, which reverse-splicing fitness is on record?
A: 0.00234

Q: For C82A A111C A120U A145G U176A, which reverse-splicing fitness is on record?
A: 0.00698

Q: Which reverse-splicing fitness does the source give for C82A A111C A120U A145G U176C here?
A: 0.0109

Q: For C82A A111C A120U A145G U176G, which reverse-splicing fitness is on record?
A: 0.0035

Q: Which reverse-splicing fitness does the source give for C82A A111C A120U A145U here?
A: 0.0205

Q: With C82A A111C A120U A145U C150A as the variant, how does the reverse-splicing fitness read?
A: 0.00598

Q: With C82A A111C A120U A145U C150A C169A as the variant, how does the reverse-splicing fitness read?
A: 0.00298

Q: For C82A A111C A120U A145U C150A C169A U176A, which reverse-splicing fitness is on record?
A: 0.00258

Q: Which reverse-splicing fitness does the source give for C82A A111C A120U A145U C150A C169A U176C here?
A: 0.00334

Q: For C82A A111C A120U A145U C150A C169A U176G, which reverse-splicing fitness is on record?
A: 0.00272

Q: With C82A A111C A120U A145U C150A C169G as the variant, how does the reverse-splicing fitness read?
A: 0.00349

Q: For C82A A111C A120U A145U C150A C169G U176A, which reverse-splicing fitness is on record?
A: 0.003

Q: Which reverse-splicing fitness does the source give for C82A A111C A120U A145U C150A C169G U176C here?
A: 0.00377

Q: With C82A A111C A120U A145U C150A C169G U176G as the variant, how does the reverse-splicing fitness read?
A: 0.00247

Q: For C82A A111C A120U A145U C150A C169U, which reverse-splicing fitness is on record?
A: 0.00332

Q: For C82A A111C A120U A145U C150A C169U U176A, which reverse-splicing fitness is on record?
A: 0.00378

Q: With C82A A111C A120U A145U C150A C169U U176C as the variant, how does the reverse-splicing fitness read?
A: 0.00301

Q: With C82A A111C A120U A145U C150A C169U U176G as the variant, how does the reverse-splicing fitness read?
A: 0.00282

Q: Which reverse-splicing fitness does the source give for C82A A111C A120U A145U C150A U176A here?
A: 0.00477

Q: For C82A A111C A120U A145U C150A U176C, which reverse-splicing fitness is on record?
A: 0.0062

Q: Which reverse-splicing fitness does the source give for C82A A111C A120U A145U C150A U176G here?
A: 0.00301

Q: For C82A A111C A120U A145U C150G, which reverse-splicing fitness is on record?
A: 0.00626

Q: For C82A A111C A120U A145U C150G C169A, which reverse-splicing fitness is on record?
A: 0.00497

Q: For C82A A111C A120U A145U C150G C169A U176A, which reverse-splicing fitness is on record?
A: 0.00379

Q: For C82A A111C A120U A145U C150G C169A U176C, which reverse-splicing fitness is on record?
A: 0.00377

Q: Which reverse-splicing fitness does the source give for C82A A111C A120U A145U C150G C169A U176G here?
A: 0.00338

Q: For C82A A111C A120U A145U C150G C169G, which reverse-splicing fitness is on record?
A: 0.00401

Q: For C82A A111C A120U A145U C150G C169G U176A, which reverse-splicing fitness is on record?
A: 0.00314

Q: With C82A A111C A120U A145U C150G C169G U176C as the variant, how does the reverse-splicing fitness read?
A: 0.00299
